From patent US12496346B2, “Phospholipid-flavagline conjugates and methods of using the same for targeted cancer therapy” (Cellectar Biosciences, Inc., priority 2019, dated 2025)
Each block holds one compound with its values, some of them ahead of it.

Assays:
[1] = test system: A549 (human lung adenocarcinoma); assay: cells; assay type: cell-based; conditions: in vitro
[2] = in vivo; assay type: in vivo, mice
Procedure: Listed in Table 5 are the doses administered to the mice, and how many mice were alive after treatment (“3/3” indicates 3 out of 3 mice were alive). […] MTD for CLR 1865 was between 5 and 10 mg/kg.

[3] = Plasma stability
Procedure: (§1) A small amount of molecule was exposed to plasma, and the plasma was then analyzed via HPLC or MS to determine if the molecule was degraded.

[4] = in vitro; conditions: mouse, plasma
Procedure: as §1

[5] = Plasma stability; conditions: mouse
Procedure: as §1

[6] = in vitro; conditions: human, plasma
Procedure: as §1

[7] = test system: Colorectal (HCT-116) tumor; assay: In vivo imaging of targeted delivery; parameters: species or system nude mouse
Procedure: Initial targeting noted within 30 minutes (not shown).

[8] = test system: Intestinal Polyp; assay: Uptake in benign tissues; assay type: in vivo; conditions: Endogenous Mouse, Adenoma (benign)
[9] = test system: Mammary alveolar hyperplasia; assay: Uptake in benign tissues; assay type: in vivo; conditions: Endogenous Mouse

Structure (SMILES): COc1ccc([C@@]23Oc4cc(OCCCCNC(=O)OCC(C)(C)SSCCCCCCCCCCCCCCCCCCOP(=O)([O-])OCC[N+](C)(C)C)cc(OC)c4[C@]2(O)[C@H](O)[C@H](C(=O)O)[C@H]3c2ccccc2)cc1 [CLR 1865]
- Therapeutic Index (TI) ([1]; NHDF IC50 relative to cancer cell IC50): 11.64
- Therapeutic Index (TI), second value in parentheses ([1]; from the NHDF value in parentheses): (37.3)
- mice alive after treatment ([2]; Dose 0.1 mg/kg): 3/3
- mice alive after treatment ([2]; Dose 0.25 mg/kg): 3/3
- mice alive after treatment ([2]; Dose 0.5 mg/kg): 3/3
- mice alive after treatment ([2]; Dose 1.0 mg/kg): 3/3
- mice alive after treatment ([2]; Dose 5.0 mg/kg): 3/3
- mice alive after treatment ([2]; Dose 10.0 mg/kg): 2/3
- in vivo therapeutic index ([2]; mice): ≥ 12.5
- tolerability compared to FLV3 alone ([2]; mice): excellent improvement in tolerability
- MTD ([2]; mouse, in vivo, mice, read-out: maximum tolerated dose (MTD)): 5 to 10 mg/kg
- human plasma stability [3]: excellent human plasma stability
- half-life [4]: 3.32 h
- time stable in mouse plasma [5]: 3.3 h
- half-life [6]: > 6.67 h

- time to initial targeting ([7]; 1 mg injected): ≤ 30 min
- time to maximum distribution ([7]; 1 mg injected, Pearl Infrared Imaging System): ≤ 24 h
- distribution in tumor ([7]; approximately 5.5 hours post injection, 1 mg): the tumor still showed red color
Structure (SMILES): CN1/C(=C/C=C2\CCCC(/C=C/C3=[N+](C)c4ccccc4C3(C)C)=C2c2ccc(CCCCCCCCCCCCCCCCCCOP(=O)(O)OCC[N+](C)(C)C)cc2)C(C)(C)c2ccccc21 [CLR 1502]

Structure (SMILES): C[N+](C)(C)CCOP(=O)([O-])OCCCCCCCCCCCCCCCCCCc1ccc(I)cc1 [CLR1404]
- Tumor Uptake [8]: No
- Tumor Uptake [9]: No
